± gives the standard deviation of the averaged measurements.

A short description of the data set: total protein half-life in vivo (active degradation + dilution); higher = more stable protein.
Where [1] appears, read: E. coli NCM3722 delta-clpP delta-lon delta-hslV, growth: N-lim chemostat, doubling time 6 h.
Where [2] appears, read: E. coli NCM3722 delta-clpP, growth: N-lim chemostat, doubling time 6 h.
The mark [3] stands for this setting: E. coli NCM3722 delta-hslV, growth: N-lim chemostat, doubling time 6 h.
Setting [4] is: E. coli NCM3722 delta-lon, growth: N-lim chemostat, doubling time 6 h.
Setting [5] is: E. coli NCM3722 delta-smpB, growth: N-lim chemostat, doubling time 6 h.
The mark [6] stands for this setting: wild type E. coli NCM3722, growth: C-lim chemostat, doubling time 3 h.
Setting [7] is: wild type E. coli NCM3722, growth: N-lim chemostat, doubling time 6 h.
Where [8] appears, read: wild type E. coli NCM3722, growth: N-lim chemostat, doubling time 12 h.
Where [9] appears, read: wild type E. coli NCM3722, growth: P-lim chemostat, doubling time 6 h.
Where [10] appears, read: wild type E. coli NCM3722, growth: P-lim chemostat, doubling time 12 h.
[11] abbreviates: wild type E. coli NCM3722, growth: C-lim chemostat, doubling time 6 h.
[12] abbreviates: wild type E. coli NCM3722, growth: C-lim chemostat, doubling time 12 h.

“MIWKRKITLEALNAMGEGNMVGFLDIRFEHIGDDTLEATMPVDSRTKQPFGLLHGGASVVLAESIGSVAGYLCTEGEQKVVGLEINANHVRSAREGRVRGVCKPLHLGSRHQVWQIEIFDEKGRLCCSSRLTTAIL”: the “total protein half-life in vivo” value reads like this: under setting [1], 4.78 h; under setting [2], 3.39 h; under setting [3], 4.22 h; under setting [4], 4.14 h; under setting [5], 3.73 ± 0.23 h; under setting [6], 2.75 ± 0.11 h. Besides, the “total protein half-life in vivo” value is, setting by setting: under setting [7], 4.23 h; under setting [8], 9.08 ± 3.8 h; under setting [9], 6.54 h; under setting [10], 10.7 h.
Consider “MKKVLLIILLLLVVLGIAAGVGVWKVRHLADSKLLIKEETIFTLKPGTGRLALGEQLYADKIINRPRVFQWLLRIEPDLSHFKAGTYRFTPQMTVREMLKLLESGKEAQFPLRLVEGMRLSDYLKQLREAPYIKHTLSDDKYATVAQALELENPEWIEGWFWPDTWMYTANTTDVALLKRAHKKMVKAVDSAWEGRADGLPYKDKNQLVTMASIIEKETAVASERDKVASVFINRLRIGMRLQTDPTVIYGMGERYNGKLSRADLETPTAYNTYTITGLPPGAIATPGADSLKAAAHPAKTPYLYFVADGKGGHTFNTNLASHNKSVQDYLKVLKEKNAQ”, for which the “total protein half-life in vivo” value under setting [1] was found to be 6.33 ± 0.68 h; the “total protein half-life in vivo” value under setting [2] worked out at 6.52 ± 1.1 h; the “total protein half-life in vivo” value under setting [3] stood at 6.8 ± 0.6 h; the “total protein half-life in vivo” value under setting [4] worked out at 6.58 ± 0.69 h; the “total protein half-life in vivo” value under setting [5] was 6.22 ± 0.74 h; the “total protein half-life in vivo” value under setting [6] turned out to be 3.49 ± 0.33 h. Further, the “total protein half-life in vivo” value came out at 6.65 ± 0.64 h under setting [11]; 12.7 ± 1.6 h under setting [12]; 6.34 ± 0.68 h under setting [7]; 12.4 ± 1.7 h under setting [8]; 6 ± 0.25 h under setting [9]; 12 ± 0.45 h under setting [10].
For the sequence “MKLQNSFRDYTAESALFVRRALVAFLGILLLTGVLIANLYNLQIVRFTDYQTRSNENRIKLVPIAPSRGIIYDRNGIPLALNRTIYQIEMMPEKVDNVQQTLDALRSVVDLTDDDIAAFRKERARSHRFTSIPVKTNLTEVQVARFAVNQYRFPGVEVKGYKRRYYPYGSALTHVIGYVSKINDKDVERLNNDGKLANYAATHDIGKLGIERYYEDVLHGQTGYEEVEVNNRGRVIRQLKEVPPQAGHDIYLTLDLKLQQYIETLLAGSRAAVVVTDPRTGGVLALVSTPSYDPNLFVDGISSKDYSALLNDPNTPLVNRATQGVYPPASTVKPYVAVSALSAGVITRNTTLFDPGWWQLPGSEKRYRDWKKWGHGRLNVTRSLEESADTFFYQVAYDMGIDRLSEWMGKFGYGHYTGIDLAEERSGNMPTREWKQKRFKKPWYQGDTIPVGIGQGYWTATPIQMSKALMILINDGIVKVPHLLMSTAEDGKQVPWVQPHEPPVGDIHSGYWELAKDGMYGVANRPNGTAHKYFASAPYKIAAKSGTAQVFGLKANETYNAHKIAERLRDHKLMTAFAPYNNPQVAVAMILENGGAGPAVGTLMRQILDHIMLGDNNTDLPAENPAVAAAEDH [P0AD65]”, the “total protein half-life in vivo” value is, setting by setting: under setting [1], 7.59 ± 0.27 h; under setting [2], 6.61 ± 0.79 h; under setting [3], 6.75 ± 0.56 h; under setting [4], 6.37 ± 0.078 h; under setting [5], 5.71 ± 0.077 h; under setting [6], 3.03 ± 0.031 h. The “total protein half-life in vivo” value under setting [11] stood at 6.92 ± 1.1 h; the “total protein half-life in vivo” value under setting [12] was 11.8 ± 0.77 h; the “total protein half-life in vivo” value under setting [7] was found to be 6.5 ± 0.79 h; the “total protein half-life in vivo” value under setting [8] was 13.4 ± 0.88 h; the “total protein half-life in vivo” value under setting [9] came to 6.24 ± 0.3 h; the “total protein half-life in vivo” value under setting [10] came to 13.7 ± 1 h.
On to “MNILQFNVRLAEGGAAGVALDLHQRALQQGLASHFVYGYGKGGKESVSHQNYPQVIKHTPRMTAMANIALFRLFNRDLFGNFNELYRTITRTAGPVVLHFHVLHSYWLNLKSVVRFCEKVKNHKPDVTLVWTLHDHWSVTGRCAFTDGCEGWKTGCQKCPTLNNYPPVKIDRAHQLVAGKRQLFREMLALGCQFISPSQHVADAFNSLYGPGRCRIINNGIDMATEAILADLPPVRETQGKPKIAVVAHDLRYDGKTNQQLVREMMALGDKIELHTFGKFSPFTAGNVVNHGFETDKRKLMSALNQMDALVFSSRVDNYPLILCEALSIGVPVIATHSDAAREVLQKSGGKTVSEEEVLQLVQLSKPEIAQAIFGTTLAEFSQRSRAAYSGQQMLEEYVNFYQNL”, for which the “total protein half-life in vivo” value runs as follows: under setting [4], 5.88 ± 0.64 h; under setting [5], 5.05 ± 0.76 h.
On to “MHINIAWQDVDTVLLDMDGTLLDLAFDNYFWQKLVPETWGAKNGVTPQEAMEYMRQQYHDVQHTLNWYCLDYWSEQLGLDICAMTTEMGPRAVLREDTIPFLEALKASGKQRILLTNAHPHNLAVKLEHTGLDAHLDLLLSTHTFGYPKEDQRLWHAVAEATGLKAERTLFIDDSEAILDAAAQFGIRYCLGVTNPDSGIAEKQYQRHPSLNDYRRLIPSLM”, for which the “total protein half-life in vivo” value under setting [1] stood at 4.35 ± 0.11 h; the “total protein half-life in vivo” value under setting [4] came out at 2.37 ± 2.1 h; the “total protein half-life in vivo” value under setting [6] was 0.973 ± 0.063 h; the “total protein half-life in vivo” value under setting [11] turned out to be 0.971 h; the “total protein half-life in vivo” value under setting [9] turned out to be 0.56 h; the “total protein half-life in vivo” value under setting [10] was determined as 0.544 h.
On to “MFKKSVLFATLLSGVMAFSTNADDKIILKHISVSSVSASPTVLEDTIADIARKYNASSWKVTSMRIDNNSTATAVLYK”, for which the “total protein half-life in vivo” value is, setting by setting: under setting [3], 5.17 ± 1.6 h; under setting [5], 6.02 ± 0.31 h; under setting [11], 3.54 ± 0.083 h; under setting [12], 6.51 ± 5.1 h; under setting [7], 3.93 h; under setting [8], 9.35 ± 3.8 h. Besides, the “total protein half-life in vivo” value runs as follows: under setting [9], 5.33 h; under setting [10], 11.5 h.
In the case of “MQKEQLSALMDGETLDSELLNELAHNPEMQKTWESYHLIRDSMRGDTPEVLHFDISSRVMAAIEEEPVRQPATLIPEAQPAPHQWQKMPFWQKVRPWAAQLTQMGVAACVSLAVIVGVQHYNGQSETSQQPETPVFNTLPMMGKASPVSLGVPSEATANNGQQQQVQEQRRRINAMLQDYELQRRLHSEQLQFEQAQTQQAAVQVPGIQTLGTQSQ [P0AFX7]”, the “total protein half-life in vivo” value by setting is: under setting [11], 0.455 ± 0.09 h; under setting [12], 0.469 h; under setting [7], 0.895 ± 0.046 h; under setting [8], 0.953 ± 0.18 h; under setting [9], 0.801 h; under setting [10], 1.03 ± 0.45 h.
For “MVFRIASSPYTHNQRQTSRIMLLVLLAAVPGIAAQLWFFGWGTLVQILLASVSALLAEALVLKLRKQSVAATLKDNSALLTGLLLAVSIPPLAPWWMVVLGTVFAVIIAKQLYGGLGQNPFNPAMIGYVVLLISFPVQMTSWLPPHEIAVNIPGFIDAIQVIFSGHTASGGDMNTLRLGIDGISQATPLDTFKTSVRAGHSVEQIMQYPIYSGILAGAGWQWVNLAWLAGGVWLLWQKAIRWHIPLSFLVTLALCAMLGWLFSPETLAAPQIHLLSGATMLGAFFILTDPVTASTTNRGRLIFGALAGLLVWLIRSFGGYPDGVAFAVLLANITVPLIDYYTRPRVYGHRKG”, the “total protein half-life in vivo” value by setting is: under setting [1], 7.06 h; under setting [6], above 4 h; under setting [12], 13 ± 0.93 h; under setting [7], 6.53 h; under setting [8], 9.64 h; under setting [10], 13 ± 1.1 h.
Take “MGNTSIQTQSYRAVDKDAGQSRSYIIPFALLCSLFFLWAVANNLNDILLPQFQQAFTLTNFQAGLIQSAFYFGYFIIPIPAGILMKKLSYKAGIITGLFLYALGAALFWPAAEIMNYTLFLVGLFIIAAGLGCLETAANPFVTVLGPESSGHFRLNLAQTFNSFGAIIAVVFGQSLILSNVPHQSQDVLDKMSPEQLSAYKHSLVLSVQTPYMIIVAIVLLVALLIMLTKFPALQSDNHSDAKQGSFSASLSRLARIRHWRWAVLAQFCYVGAQTACWSYLIRYAVEEIPGMTAGFAANYLTGTMVCFFIGRFTGTWLISRFAPHKVLAAYALIAMALCLISAFAGGHVGLIALTLCSAFMSIQYPTIFSLGIKNLGQDTKYGSSFIVMTIIGGGIVTPVMGFVSDAAGNIPTAELIPALCFAVIFIFARFRSQTATN”: the “total protein half-life in vivo” value under setting [11] was found to be 3.02 h and the “total protein half-life in vivo” value under setting [12] was 4.27 ± 0.49 h.
